According to PMC314469, “Protein Interaction Networks by Proteome Peptide Scanning” (PLoS Biology, 2004):

T1: Yhr016c SH3 (YSC84_YEAST), P32793
T1 chain: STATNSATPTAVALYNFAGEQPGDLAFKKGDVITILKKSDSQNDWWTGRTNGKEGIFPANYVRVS

T2: Yfr024 SH3 (LSB3_YEAST), P43603
T2 chain: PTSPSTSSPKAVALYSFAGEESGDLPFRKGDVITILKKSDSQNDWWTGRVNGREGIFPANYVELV

T3: Boi2 SH3 (BOI2_YEAST), P39969
T3 chain: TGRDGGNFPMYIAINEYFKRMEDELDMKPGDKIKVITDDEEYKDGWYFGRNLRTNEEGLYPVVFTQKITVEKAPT

T4: Rvs167 SH3 (RV167_YEAST), P39743
T4 chain: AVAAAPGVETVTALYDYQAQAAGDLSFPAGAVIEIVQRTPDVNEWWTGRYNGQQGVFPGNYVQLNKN

T5: Boi1 SH3 (BOI1_YEAST), P38041
T5 chain: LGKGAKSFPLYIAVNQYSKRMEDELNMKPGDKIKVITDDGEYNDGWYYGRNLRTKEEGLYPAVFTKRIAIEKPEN

T6: Myo5 SH3 (MYO5_YEAST), Q04439
T6 chain: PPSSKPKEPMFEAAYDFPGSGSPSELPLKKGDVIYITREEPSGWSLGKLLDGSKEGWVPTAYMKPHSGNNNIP


Tests used:
Experiment in all cases: SPOT array
[1] = biological target: T1, Yhr016c SH3 (YSC84_YEAST), P32793
[2] = biological target: Sho1 SH3 (SHO1_YEAST), P40073
Sequence of Sho1 SH3 (SHO1_YEAST), P40073 (P40073 295-366): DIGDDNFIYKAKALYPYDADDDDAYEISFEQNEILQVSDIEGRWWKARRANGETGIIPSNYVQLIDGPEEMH

[3] = biological target: T2, Yfr024 SH3 (LSB3_YEAST), P43603
[4] = biological target: T3, Boi2 SH3 (BOI2_YEAST), P39969
[5] = biological target: T4, Rvs167 SH3 (RV167_YEAST), P39743
[6] = biological target: T5, Boi1 SH3 (BOI1_YEAST), P38041
[7] = biological target: T6, Myo5 SH3 (MYO5_YEAST), Q04439

Binder | normalised SPOT signal, Boehringer light units (BLU); mean over the file's lines of this peptide [1] | normalised SPOT signal, Boehringer light units (BLU); mean over the file's lines of this peptide [2] | normalised SPOT signal, Boehringer light units (BLU); mean over the file's lines of this peptide [3] | normalised SPOT signal, Boehringer light units (BLU); mean over the file's lines of this peptide [4] | normalised SPOT signal, Boehringer light units (BLU); mean over the file's lines of this peptide [5] | normalised SPOT signal, Boehringer light units (BLU); mean over the file's lines of this peptide [6] | normalised SPOT signal, Boehringer light units (BLU); mean over the file's lines of this peptide [7]
DDIIKDHPHIPNGQ [YOR360C 470-483] | 74 | 23.4 | 34 | 0.5 | 25.4 | 187 | 57.8
DFIGRKSPDLPEYL [YLL006W 228-241] | 37.2 | 17.3 | 59.3 | 41.4 | 162 | 137 | 139
SKYNRQHPANPAAA [YPL247C 221-234] | 38.8 | 65.9 | 126 | 48.5 | 61.3 | 210 | 189
DEPIRYAPGDPIEK [YNL132W 471-484] | 9.2 | 54.9 | 0.5 | 1 | 26.2 | 57.2 | 106
SNRARYLPQNPDII [YBR195C 132-145] | 47.2 | 35.8 | 304 | 45.5 | 36.2 | 386 | 244
DENSKWQPSDPFTM [YOL157C 233-246] | 10 | 27.7 | 12.9 | 27 | 30.2 | 91.8 | 285
DETRKLTPSSPGDD [YPR173C 368-381] | 19.2 | 33.5 | 62.3 | 16.6 | 52.7 | 0 | 231
SLRARNGPVPPVHI [YIR027C 235-248] | 9.1 | 58.5 | 157 | 0 | 46.2 | 638 | 208
SFKTKFAPEAPDLF [YDL195W 303-316] | 19 | 35.8 | 23.2 | 15 | 46.5 | 59.6 | 209
SNYSKIFPGIPISL [YOR245C 211-224] | 60.1 | 27.6 | 112 | 25.9 | 84.8 | 41 | 49.2
SAKSKSRPNTPGSD [YIR007W 739-752] | 0 | 146 | 122 | 23.7 | 129 | 1740 | 153
SWHPKTIPKQPMEI [YGL197W 260-273] | 79.8 | 187 | 1300 | 40.7 | 90.4 | 26.3 | 343
DEFNRNTPPQPSLL [YPL084W 526-539] | 25.1 | 14.3 | 73.4 | 33.7 | 14.4 | 73.9 | 118
SRHLKLVPSTPMDI [YBR128C 258-271] | 40 | 225 | 546 | 102 | 83.7 | 441 | 362
DEALRYSPDAPIVL [YNL090W 103-116] | 22.9 | 49.5 | 50.8 | 16.1 | 32.9 | 37.1 | 127
DDNVRPSPISPSIN [YLR337C 513-526] | 18.2 | 23.2 | 120 | 18.9 | 17.2 | 19.1 | 153
